Source: patent US20050112063A1, “Methods for inhibiting vascular permeability” (priority 2002, published 2005)
“Also recorded” adds a separate entry of the source.

How the values were obtained:
Mice [1] = assay: Miles assay (induced vessel permeability); type: in vivo
Protocol: One of the problems with angiogenesis-dependent diseases is increased vessel permeability (due to high levels of VPF) which results in edema and loss of proteins. A decrease in vessel permeability is beneficial in those diseases. […] Briefly, a dye, Evans Blue (1% in PBS), was injected i.v. to anesthesized mice. After 10 min, human recombinant VEGF165 (50 ng/50 μl) was injected intradermally into the back skin. Leakage of protein-bound dye was detected as blue spots on the underside of the back skin surrounding the injection site. After 20 min mice were euthanized. Then, the skin was excised, left in formamide for 5 days to be extracted and the solution read at 620 nm. Putative angiogenesis inhibitors such as free and conjugated TNP-470 were injected daily 3 days (30 mg/kg/day) prior to the VEGF challenge. The same was repeated on tumor-bearing mice to evaluate the effect of angiogenesis inhibitors on tumor vessel permeability.

lungs = assay: IL-2 induced pulmonary edema, relative weight of the lungs; type: in vivo; conditions: 3 days treatment, edema induced with IL-2 i.m. (FIG. 12)
[2] = system: Bovine adrenal capillary endothelial cells; assay: BCE proliferation assay; type: cell-based; conditions: challenged with bFGF, 72 h; data not shown
Protocol: Bovine adrenal capillary endothelial cells were seeded on gelatinized plates (15,000/well). Following 24 h incubation, cells were challenged with free and conjugated TNP-470, and bFGF (1 ng/ml) was added to the medium. Cells were counted after 72 h.

[3] = system: Aortic arches from day-14 chick embryos; assay: Chick aortic ring assay; type: cell-based
Protocol: Aortic arches were dissected from day-14 chick embryos and cut into cross-sectional fragments, everted to expose the endothelium, and explanted in Matrigel. When cultured in serum-free MCDB-131 medium, endothelial cells outgrow and three-dimensional vascular channel formation occurred within […]. Free and conjugated TNP-470 were added to the culture.

[4] = system: A2058 human melanoma-bearing mice; assay: Miles assay on tumor-bearing mice (tumor vessel permeability); type: in vivo; conditions: 30 mg/kg/day for three days
Protocol: One of the problems with angiogenesis-dependent diseases is increased vessel permeability (due to high levels of VPF) which results in edema and loss of proteins. A decrease in vessel permeability is beneficial in those diseases. We have found, using the Miles assay ([…], et al., Cancer Res, 56:172-181 (1996)), that free and bound TNP-470 block permeability. Briefly, a dye, Evans Blue (1% in PBS), was injected i.v. to anesthesized mice. After 10 min, human recombinant VEGF165 (50 ng/50 μl) was injected intradermally into the back skin. Leakage of protein-bound dye was detected as blue spots on the underside of the back skin surrounding the injection site. After 20 min mice were euthanized. Then, the skin was excised, left in formamide for 5 days to be extracted and the solution read at 620 nm. Putative angiogenesis inhibitors such as free and conjugated TNP-470 were injected daily 3 days (30 mg/kg/day) prior to the VEGF challenge. The same was repeated on tumor-bearing mice to evaluate the effect of angiogenesis inhibitors on tumor vessel permeability.

[5] = system: Bovine capillary endothelial cells (BCE); assay: Immunostaining of tight junction proteins (β-catenin, occludin, ZO-1); type: cell-based
Protocol: Bovine capillary endothelial cells (BCE) were cultured in the presence of 0.2, 0.5 and 2 μg/ml human endostatin for three days. The cells were fixed and immunostained with anti-β-catenin, occludin, and ZO-1 antibodies (Zymed Laboratories, CA). The staining was developed using FITC-conjugated secondary antibodies and visualized under fluorescent microscopy. Immunostaining for β-catenin marked the cell borders and was more intense when two cells contacted each other. […] There was no difference in β-catenin staining between 0.5 and 2.0 μg/ml endostatin. […] Similar results were obtained with ZO-1 immunostaining. […] This is the first documentation of the effects of endostatin on tight junctions that may explain, in part, the mechanism of its antiangiogenic activities. Similar experiments were performed in which BCE were incubated in the presence and absence of 0.5 μg/ml endostatin for 3 days followed by stimulation with PAF for 20 minutes. The cells were fixed and immunostained with anti-α-catenin, occludin, and ZO-1 antibodies (Zymed Laboratories, CA), as described above.

Nude mice = assay: Evans Blue dye extravasation in skin after intradermal PAF; type: in vivo
Protocol: (§1) The antiangiogenic factor (endostatin) was injected intraperitoneally to FVB/NJ mice for 4 days. Immediately after the last injection, mice were anasthesized and received intravenous injection of 100 μl Evans Blue dye (1% in PBS). Subsequently, different amounts of VEGF165, VEGF121 or saline were injected intradermaly. After 20 minutes, mice were sacrificed and skin flap from the back was removed and photographed. Skin samples from the injection sites were excised and incubated in formamide for 5 days in order to extract the dye and O.D. was measured at 620 nm. […] Quantitative analysis of Evans Blue dye extravasation (FIG. 1) confirmed the lower skin capillary permeability of the antiangiogenic factor-treated mice and indicated the weak permeability-inducing effect of VEGF in these mice.
In order to test if the effects of the antiangiogenic factor (endostatin) on vascular permeability is VEGF-specific, we have tested the effects of intradermal injection of platelet-activating factor (PAF) in Nude mice that were previously injected with the antiangiogenic factor and in control mice, as described above. […] Quantitative analysis of Evans Blue dye extravasation (FIG. 2) confirmed the lower skin capillary permeability of the antiangiogenic factor-treated mice compared with control and the lack of PAF-induced hyperpermeability in these mice. […]

Mice [6] = assay: Swelling of lung tissue in mice injected with micro-encapsulated VEGF-producing cells; type: in vivo; conditions: VEGF producing cells together with endostatin producing cells, 5 days
Text: Dilation of the lung tissue may result in lung dysfunction and development of pulmonary hypertension. Mice injected with micro-encapsulated cells producing VEGF (approximately 0.5×10^6 cells per mouse) developed thickened lung parenchyma 5 days after injection. At a higher magnification we observed generation of several cell layers between the alveoli compared with one layer of cells in mice injected with micro-encapsulated control cells or with micro-encapsulated cells producing endostatin (Endost). […] Moreover, treatment with endostatin reduced the number of cell layers between the alveoli and the lungs of mice that were treated with endostatin appeared similar to control mice. Therefore, endostatin appears to block the swelling of lung tissue and may be used for treatment of pulmonary hypertension.

FVB/NJ mice = assay: Evans Blue dye extravasation in skin after intradermal VEGF; type: in vivo
Protocol: as §1

Humans = assay: Histamine-induced wheal and flare test in skin; type: in vivo; conditions: intradermal histamine
Protocol: Antiangiogenic treatment has entered into clinical trials recently. Molecules that are tested in phase 1 and 2 clinical trials include endostatin, angiostatin, TNP-470, thalidomide, anti-VEGF antibodies, PTK787, SU-5416, SU-6668 and others. […] Mice that received endostatin for several days had lower diffusion of Evans blue from the skin capillaries in response to intradermal VEGF and PAF injection compared with normal mice. The existing test of histamine-induced wheal and flare in skin can be used in order to test bioactivity of endostatin and other antiangiogenic factors. Intradermal injection of histamine leads to the formation of local adema ([…]) due to blood vessel hyperpermiability. […] This test will serve as an early surrogate marker for the bioactivity of endostatin and other antiangiogenic factors and help to determine the treatment's efficiency in individual patients.

[7] = system: Bovine capillary endothelial cells (BCE); assay: In vitro diffusion of FITC-dextran through endothelial cell monolayer (Transwells); type: cell-based
Protocol: The effects of the antiangiogenic factor (endostatin) on skin vessel permeability in vivo were tested in an in vitro diffusion model designed to mimic blood vessel permeability. Bovine capillary endothelial cells (BCE) were seeded in collagen coated inserts of “Transwells” and grown to confluence. The antiangiogenic factor was added every 24 hours. Four days later the inserts were washed with BCE culture medium and the following tracers and permeability regulators were added to the inserts. Half of the inserts received 5 mg/ml FITC-labeled dextran 10 kDa and the other half received 5 mg/ml FITC-labeled dextran 70 kDa. In addition, some inserts received 50 ng/ml VEGF165 or 100 nM PAF. Control inserts received BCE culture medium with fluorescent tracers only. The fluorescence in the lower wells was measured after 10, 20, 30, 45 and 60 minutes by transferring the inserts into new wells.
In order to follow the kinetic of the diffusion process, the flow of the tracer was calculated as fluorescent counts per minute (FIGS. 5 and 6). […] In contrast, the flow in control cells was constant and was lower than that observed in PAF and VEGF165-treated cells.

mice (SCID) = assay: Duration of exposure: Alzet pump, skin vessel permeability with Evans Blue; type: in vivo
Protocol: In order to test if continuous exposure to the antiangiogenic factor (endostatin) is required to repress blood vessel permeability, mice (SCID) were anesthetized and “Alzet” pumps loaded with the antiangiogenic factor or saline were implanted intraperitoneally. The pumps release 1 μl the antiangiogenic factor per hour. Skin vessel permeability using Evans Blue dye was performed as described above. Saline and the antiangiogenic factor treated mice were examined 2, 3 and 4 days after pump implantation, as described above (FIG. 3). […] In both groups, PAF injection induced higher vessel permeability than saline injection. […] However, in both groups PAF injection induced higher vessel permeability than saline injection. […] Since the tumor vessels are continuously permeabilized and plasma proteins contained within the tumor support its vascularization the anti-permeability effect of the antiangiogenic factor offers a possible mechanism for its anti-tumor activity.

Question: CO[C@@H]1[C@H](OC(=O)NC(=O)CCl)CC[C@]2(CO2)[C@H]1[C@@]1(C)O[C@@H]1CC=C(C)C [TNP-470] was tested. Which “VEGF, PAF and histamine-induced vascular leakage” value (Mice [1]; Miles assay, compared to control (FIGS. 8A-8E)) did it give?
Answer: Its value is “prevents”.

Question: What about the “pulmonary edema (relative weight of the lungs)” value (lungs) of the same molecule?
Answer: Its value is “reduces pulmonary edema”.

Question: What about the BCE cell growth [2] of the same molecule?
Answer: Its BCE cell growth is “inhibited”.

Question: What about the “concentration that showed efficacy (reduced number and length of vascular sprouts)” value [3] of the same molecule?
Answer: The value was 50 pg/mL.

Question: And the tumor vessel permeability [4]?
Answer: The tumor vessel permeability was “decreased”.

Question: For O=C1CCC(N2C(=O)c3ccccc3C2=O)C(=O)N1 (centres unmarked) [Thalidomide], which vessel permeability (Mice [1]; FIGS. 9A-9D) is on record?
Answer: The vessel permeability was “no effect”.

B1: endostatin (protein, UniProt P39060 1572-1754, looked up)
Endostatin: HSHRDFQPVLHLVALNSPLSGGMRGIRGADFQCFQQARAVGLAGTFRAFLSSRLQDLYSIVRRADRAAVPIVNLKDELLFPSWEALFSGSEGPLKPGARIFSFDGKDVLRHPTWPQKSVWHGSDPNGRRLTESYCETWRTEAPSATGQASSLLGGRLLGQSAASCHHAYIVLCIENSFMTASK
modifications: Endostatin
notes: antiangiogenic factor; human endostatin used on BCE cells
Question: For B1, which “PAF-induced reduction of staining intensity of β-catenin, occludin and ZO-1” value ([5]; 0.5 μg/ml for 3 days, then PAF for 20 minutes) is on record?
Answer: The value was “not in endostatin-treated cells”.

Question: What about the ZO-1 immunostaining ([5]; 0.2-2.0 μg/ml, three days) of the same molecule?
Answer: The ZO-1 immunostaining was “Cells boundaries were only visible in the presence”.

Question: What about the “β-catenin staining, 0.5 versus 2.0 μg/ml” value ([5]; three days) of the same molecule?
Answer: Its value is “no difference”.

Question: And the PAF-induced vascular permeability (Nude mice; intradermal PAF)?
Answer: The PAF-induced vascular permeability was “repressed”.

Question: And the “vascular permeability (skin flaps, Evans Blue)” value (Nude mice; vs control)?
Answer: The value was “inhibits vascular permeability”.

Question: And the “accumulation of extracellular matrix in lung tissue” value (Mice [6])?
Answer: The value was “no accumulation of extracellular matrix”.

Question: And the “cell layers between the alveoli” value (Mice [6])?
Answer: The value was “fewer cell layers”.

Question: What about the “Evans Blue dye leakage (skin capillary permeability)” value (FVB/NJ mice; injected intraperitoneally for 4 days, vs control) of the same molecule?
Answer: Its value is “overall lower dye leakage than the control”.

Question: And the “induction of hyperpermeability by VEGF injection” value (FVB/NJ mice; intradermal VEGF165 or VEGF121, 4 days treatment)?
Answer: Its value is “minor induction of hyperpermeability”.

Question: And the “histamine-induced zone of edema” value (Humans)?
Answer: The value was “reduced zone of edema”.

Question: What about the “flow of the tracer (fluorescent counts per minute)” value ([7]; 10 kDa and 70 kDa dextrans, vs control cells) of the same molecule?
Answer: The value was “significant reduced flow; also recorded: lower than that of control cells”.

Question: And the “course of tracer flow over time” value ([7]; 60 minutes period)?
Answer: Its value is “constant flow”.

Question: And the “sum of fluorescent count over 60 minutes” value ([7]; 4 days pre-treatment, vs control, VEGF165-treated and PAF-treated cells, 10 kDa and 70 kDa dextran)?
Answer: The value was “significantly lower fluorescent counts”.

Question: What about the “reduction in fluorescent counts, 70 kDa compared with 10 kDa dextran” value ([7]; pre-treated BCE cells) of the same molecule?
Answer: Its value is “more pronounced in the diffusion of 70 kDa dextran”.

Question: And the “treatment time required to reduce skin vessel permeability” value (mice (SCID); Alzet pump intraperitoneally)?
Answer: Its value is “at least 3 days”.

Question: What about the “blood vessel permeability in response to PAF, saline vs treated mice” value (mice (SCID); day two after pump implantation) of the same molecule?
Answer: Its value is “no significant difference”.

Question: What about the “vessel permeability in saline treated mice compared with treated mice” value (mice (SCID); days three and four, saline and PAF injections) of the same molecule?
Answer: Its value is “significantly higher vessel permeability than in the antiangiogenic factor treated mice”.
